In assay [1] the target is ΔN LSD1 (171–852)–CoREST (286–482) complex (human) (UniProt O60341). In words: enzyme inhibition kinetics (peroxidase-coupled demethylase assay); 0.3 μM ΔN LSD1-CoREST, 50 mM Hepes (Na) pH 7.5, 25 °C; H3K4me2 peptide (1-21) substrate 10-60 μM; NLS 0-10 μM or NLSp∗ 0-100 μM; fit to competitive inhibition; Ki called apparent in the legend.
The target is the same in assay [2].
Assay [3] concerns the target biotinylated recombinant human nucleosome (unmodified, 147 bp 601 DNA) (human) (UniProt P68431). In words: SPR; biotinylated recombinant human nucleosomes (147 bp 601 DNA) immobilised on a streptavidin chip SA at 4000-5000 RU; LSD1-CoREST injected at 5-2000 nM (full length up to 500 nM), 40 μl/min; Biacore 3000, 298 K; running buffer 10 mM Tris, 100 mM NaCl, 1 mM EDTA, 2 mM TCEP, 0.005% Tween 20, pH 7.4; apparent Kd.

In assay [4] the target is biotinylated NT-LSD1 (residues 100–151) (human). In words: SPR; biotinylated NT-LSD1 immobilised at 560 RU; ΔN LSD1-CoREST injected at 25-1000 nM, 40 μl/min, in running buffer. For orientation: SPR reads the build-up and loss of mass on a sensor chip optically.

Regarding NLS peptide (LSD1 aa 107–120), in assay [1], the Ki is 3300 nM. The same substance had an IC50 of inhibition of ΔN LSD1-CoREST demethylation of H3K4me2 nucleosomes (quantitative Western blot, NLS peptide 10-400 μM) in assay [2] of 30400 nM.
With “full-length LSD1 (1–852)-CoREST (286–482) complex (from UniProt O60341 1-852)”, the Kd in assay [3] turned out to be 103 nM.
Regarding “phosphomimic NLS peptide (aa 107–120, T110D/S111D)”, in assay [1], the Ki stood at 38700 nM.
Regarding “ΔN LSD1 (171–852)–CoREST (286–482) complex (from UniProt O60341 171-852)”, the Kd in assay [4] amounted to 571 nM; in assay [3], 1760 nM.
